According to the NTF2 design screens of Basanta et al. (2020):

Assay: protease stability score; higher = more stable; yeast display proteolysis, trypsin and chymotrypsin;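 note: log10 excess protease needed over predicted unfolded state with 0 meaning unfolded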

Sequence | protease stability score
DDELKRIVHQLMEALKHGDNDQWRKNVDPNVSVKIGDKELHGREEFARQIQRIKRELHLEIDIHDVKVKNGRADLDMTETRSENGQPETNRLRISYVIDNGKFKSVTLNIKQ | 0.222
DDELQHQVERFLTNIEHGDPDKIQRQVDKDVNARVGDETLHGSDQLKDTWHDTQRQMRFSFHVTKYDAREGHVDITAHITMDRNGKPESRQVRVRFNINNGKLREVDMQLRG | 1.04
DDELRHVAERFVQALDEGDPNELKEMADPNARMQVGDKYITGMETFVKHERKKMEKIRIEVVDFKANVNGDKVQVHFDVRFEVNGQPRRYSYVVIFQFRNGRISHVNVQVDPRQLKKNES | 1.04
DDELVRSAEHLFKVWQDGNPDEAKRYMDPNAELKVGDKTVHGRDDANRWVEQLQRELRYHFTINNVERQGNTVVIKATATEHHNGKPKTYSVDIEIEAQNGKVKLVIIRING | -0.09
DDEMIRVYREMQKALQDNDPERAKELMDPNAKLRYGDKVFHGREEFAKDMERRHHESRVQIRHLKVEDQGEKAVARFNEVNNSNGRPNSKSVSVELEAHNGKLVHVRAQDTK | -0.172
DDEMKKVVSRFVEAEKQGNPEDLKRNADPNVKVQVGDKTVNGRDKWATDLHKRRRDIDVEREYKSVHLTGDHLTMDVEAVYNVNGTPHKMRVTLRVVAHNGKIKKMHVQLSEEELRRLDR | 0.229
DDENMSAFERWLHAVETGNPQKVKEQMDENAKLDVGEKDVTGMDEIRRQLEKEMKRMRVTIQRYDLQVHNGQVVVRQTVVNKNDGQPRRRTNVVHVDIRNGRIQRIIQRDDG | 0.42
DDENNKILEEYLKAEQTNDPDRAVELMRDDVRMQVGDHRVHGREEVRKRIHQIKDTMRVQIDDLRVTVKGESVVANLDAQVRINGQPVRFRASVRADFHNGKIVHHRVHISEEQQERLKK | 0.272
DDENQQHFAEKMATAVIKNDPDEIVRLADPNVQVQVGEKEVHGREEVHELMEELKDQADHVHLVSVHVSNGQVNIVVDVVVNGKRLRVTITVKFNNGKVRYIRVDPEFQRKMDK | -0.095
DDENRHMAEEMMQIFKHGDHDRHRQLIDPNVKVKIGDKEYHGMEKLVQRHKEEVDQIRFEVKTVSVHNQGDKLKVEWRYVADFNGRPHDVRDDYTIDVRNGKVRSIDYNVDPRELETLLR | -0.128
DDENRKRAEEWLQAVQEGNEHQVMELADPNVRFVIGDKTLHGREQLSEWVKRVHDQMRFSVEIKHVRVHGDKVLITVRHTANVNGKPFDDTLIIKVVINNGKFQRIELRVDPEKLKHLKT | 1.01
DDENRRFAERLMKVWRTNNEEDARTLFDKDVRFEIGDKVLHGKEQYAQSVRDIKKEMRFDARVRSIDVRGEKVVVLYDVEVQHNGRPQTKQVIFIANVHNGRIKEARVEDTQ | 0.271
DDENRRRAETWFRNIQDNNPELIRHMFDEDARLEVGDKEIQGREHFEEQMKRDVEEMRLDLKVKSVEVRGNDVTVKAEAQDDRNGHPRNFTFRIRIRYHNGRVKHVHMDRQG | 0.092
DDENVEIAEKIVKAEQSGDEDHLRELADPNARFHVGDKHVSGMEKFLKDFQHEFEELRFSIKVTSVTQSNGKVHMTATATRHRNGRPDSFTANRRFLFHNGKAKEVSQDNRK | -0.352
DDENVKKFAKELLHVIKDNDEDRFRKLAPPNVEAQYGDKTIRGRESAATQFSRVATRIDHVRLEHMTVQGEHVVMKMEVDVNGRNKQLRIVFHVRNGKITSFSMDPEAQRVNSQ | 0.594
DDEQANEIISIMETGDPDKLSNMADENAKIVIGDTQIHGREDYERVATILYKQIDHHHFEHLTFTGDKVVIVWQYVVNGKQVRQRVKFDVHNGRLKHMRMEFTDPEELKIVEEILS | 1.59
DDEQDAREFVKKFVDVMRENNPRELVKMADPNVKVDVGDHRLNGREDLERKRKREADRADHIDVKVTKLHVNGDTVQAHFSFTIRHDGRNERKSETIIARKHNGRVKIKSIKNS | -0.13
DDEQDKKAEKLVNTGNFHDMANNADPNARIVVGDKRFHGREQFHTFMESLQTTIDHLQIKDIKRRPNHVEADVVAEVNGRRITFVILMVVHNGRIKNVEFKFRDEEDERVMEQILR | 0.947
DDEQDRDFVQTMREAIDRGDFKKIARMADKDVKVVIGDKNVTGRETLTHLLKDFVDKFDHIRVRHIDAHNGSVDIDMTADHNGDKRQYRIRVNVSNGQVKEFQLKQT | 0.453
DDEQINEFVKVMKTNDFKRLMDQADPNVSVSIGNFTVKGDKQAQKAARDLEEQADHIQIDSLTAHDGRLDVTLQMVFNGRDIRMSIKAEAHNGRLKSMKFQATSEEIEKILDEVLR | -0.142
DDEQLKKLAQKFADNMQSGNEEEFDRMAPPEVRVQIGDKTYKGRDKVKEMMKRFRTTADHVRIESFEAHNGQITFNVIIQVNGKSHRIRLRIQARNGQVKQFDLNPDDQRKVEK | 0.18
DDEQRKDLAHDFLHAWKKGDEKLFDNLVDENVSAQYGDKTYHGRESISTFVRNYKKRADHFRVHDMQLSNGSVRMDVEAEVNGVDVRVTFHVFFHNGRVKSLQQDFTDEDVKRRHES | 0.604
DDEREREFEHFLRVVEEGNPEELKKLLDPNVRIEYGDKVIHGREEYAKRVHETVKELRFSMSIHDVKVNGDTVEVDATSSWTHNGQPNKDQNVLVIRFHNGKFKEIRHDKDR | 0.607
DDERITELVTRFEKALQRGDNDEMERLMDPNARVRYGDKEYHGREDIKRALKEEKKRVDHFRLESVRWKNGHVEIFMKFTVNGRTEHRVFDIQLHNGRMKEMELTTS | 1.15
DDERRARDLFKEHEDNWKNGNHEELVKQADEDARVDVGDKELHGRDDLRRENRRIVEQADHIRFDLKSLDVQGDKVTFDFVVKVDINGRTETRRVQEKFVVTNGRIRLKEATEG | -0.009

Sequence | protease stability score
DDERRKKQVDTFNKAFEKGDESQIRKLFDKDAKARVGDKHYHGKEQVARMVKTFVHQVDHMQFKSVRVQGDKVRADVTVKVNGNTARFTIEIRIHNGKIQHASIDPRNMEKMKR | -0.073
DDERVQEQAKDFLKVVKEGNEEDLTKLFDPNASARYGDKTYHGREKVATAVAELAKKVDHFRVEHVEASGNKLHIDAYFQVNGNRRRIRFFIEIRNGKINTVIITSG | 1.62
DDESRVRKMLEDMREQLQTGNPERVADMADPNVEVTVGDKTLRGREDLVKYWRSIAENVDRVDLKLRSLNISGDQISVDFVERNNDNGQTRKHDASARFQKDNGRILATHIHVQ | 0.119
DDETAEKLAREFIEALKEGNEEQVRRLVDENVRVEVGDTTFHGREEAAKFAKEFKQHADHVEIRDVSVHGDKVELNLVLNVNGRERDVVVIVRVENGKIKEFQYREN | 1.22
DDETLNELVETLMKAWNQGNPDDLNKLIDKDAKIIIGETHIHGRDEFRKWADTLHRQVDHYQFDSVTAHNGRVRMHMKLRVNGVNVVVHVKVQAHNGRIKRMRMRWRNEEDKKKVEQ | 1.39
DDEVAEELRDIVHNGNWEEMSRNADKNAKVTIGDKQVHGRESAVRVLRIWQKQFDHIQIDRIDKHPGRVRWNARANVNGREVDYHARIHVKNGKVTDVTMEFTDPSQKRQFNRDLN | 0.205
DDEVAKTIVKNWKTGDPDRLNEMFDPNARIRIGNQDVHGHEEVKKMLHKFFTAIDSIDIKRVSVHNGRIDIDVRAHFNGRSFRFVLHIVVEDGRVKHMEMKVTDPDSQRELEKHQK | 1.35
DDEVFRRFQEALDIVKKGDPKKFEEMADPNARVKVGDKQLHGRETIAKDIADHMKEMKIEWRVKKLTTNEDHVNVTERWQQKHDGRPEDRERRARVRARGDKLKNHEVETDG | 0.118
DDEVKERVTQLLTAMLTNNPDKVQELIDPNAKVHVGDKRVQGEDDIKRVVEEENRQWRMRIKSVSVHVQGEKVRLDIEFVVHVNGEPQNDRVIMELTVHNGRVTDLQLQVDPRKLQERRN | 0.966
DDEVKKEAEKMVEIIMHGDPDKVRNQFDPNAKMQIGDKELHGQEQLRDHLKRMNDHLRIDLKSVSARLDGNHIHLDVLFVKEHNGKPEEQRVEFVADIHNGKIVSASVEHVD | 0.54
DDEVKKFAEKFVTNLENNNPQELKSMADPNAKFEVGNKSVHGMDEYVRQVRERNEHMRFDVKRVQIRVNGNQIIINVHLHVNVNGRPVDLSYEVDINFDNGKIKYVRLDVDEDQEKRMTG | 1.1
DDEVLDDLVRLIKDNDWEQMANNADKDVKIQIGDKTWHGREQVEEVMRRMQETIDHLDIRSVTRHNGQVKVENRIEVNGQTIIYTVVFQAHNGRLKSMRVQATSHHAEDVMRQVIN | 0.792
DDEVLDQVKEFLKAVKTGNDQQIKRLADKDVHFKIGDDVIDGREKVTKEWKQQHREMSVDYKKVKLQKRPNRAIVTYDVHYRHNGRPQSLKVQVRFTFDNGKLQSMSVTNSQ | -0.006
DDEVNHNFEEMLKARESGDPDRLKELFRDDVRMQVGDKQVTGREKLAEHLVENMKHSQRTIRITDIKAHNGRLEVRLKFTEEHNGRPKTAEADVKAVVHNGKFVSMHVDQKR | -0.523
DDEVQEVAEQWMRAFNTGDPDTFKDLLDKDVRVQYGDKRLSGKKTLANELQHQKEHQRFKVQHVDIKVTGNKAEINFTLVMDVNGKPVHYTVRANLDVHNGKVKEARFTMDPNTLSKMKR | -0.24
DDEVRKVVHEWWKALRTGDPDLAKKLADPNAEFQIGDKRVHGMKDFARKLTEEHKESEIEINIRHIDAQGDNVNVHFEFQIDRNGRPQTNTQTVHLRVNNGKITRFEMRTQS | 1.16
DDEVVKEVNNALKTNDFKSMVDLADKNARIRVGNKTYRGREEVERFQTILHQRADHVQFRKIHVEGDTAVVDMVVVVNGHKLKYTVKIRVHNGKITSLRMQFTDESDERVMSKVLG | 0.8
DDHAADVMRKWFEALSSGNPDQAKKNLDPNAKVQIGDKTLHGREQVSQHVREQKEEIRFEIQSVDVRKEPGQVTVTMVYVSHFNGQPRRDTDTFFADVHGDKIKSVHIRVDEKQKQRERD | -0.495
DDHAERQARQVQTALKTGDPNQMERMFDENAEVVYGDKRIHGEHEASRVAKRIKEEMRVEYDVRRVTDNEDHVKFHAIIVIDENGKPRTKQLDLTMQQENGKVRLVSFRQDR | -0.048
DDHAIRLLHEMIKAERTNDPDKLKEQMDPNAKIKYGDKTVHGRNDAVRYLEETVEHARVSIQVKSIKDQGDQAIADATITVNINGRPQQFKITIVAKFHNGRIKEVEIRVSEEQERQMES | 0.785
DDHALERLRSLNHIEDDGNEEKVEEMLDPNATVEVGDKRYHGSHHYVDHVRQRKEKQRYSQQFKHFHREPGRIVVHATAKFQVNGKPFKYTLTQVARLSNGKFTDIKVDVPERLKEQRQQ | -0.258
DDHALRLVEEFLRAMRTGDEDKLKELVDPNARVTVGDHVWHGMESAAREWKRLKDEMRIKIDLQHVDDHGNSANAKASLAFRVNGKPQQNHMKMEVIFENGRIQSIVLRFSNEVEHNIKR | 1.28
DDHAMRKFHELLKAIETGDEKKITDLADKHARFEYGDTEVHGRHKYAKEATDRRREMRIEIKDMKTRVDENHVQINNNYQVQVNGEPHTYTVQVVVRMDNGRLKQVQIRVSEEIRDRNKT | -0.166
DDHANRVVEDVMQAWQDNDEDRLKELLDPNVKVEYGDRRVEGRDEAVREWVEQFRQSTIEYEIKSVNNSGDKVQINMDMRFESNGHPDENRVRLEASAHNGKIRELNFHTDQ | 0.589
DDHAQRHLKELLKVINTGDEEEVEHMADPNARIQVGDKVFHGMRSYVDDIRRKKEELNVEYNVRRMDADGNRVEANVDVVFNHNGKPDRRTVDMKATIRNGKIKSMHWQENP | -0.227
